Test [1] concerns the target human interleukin 13 receptor alpha 2 (IL-13Rα2), biotinylated (human) (UniProt Q14627). Description: flow cytometry, PE-labelled mouse IgG1, live U87 cells. In general terms: In flow cytometry, cells or beads pass a laser one at a time.
For test [2] the target is unchanged. Description: flow cytometry, PE-labelled mouse IgG1, live SKOV3 cells.
The target of test [3] is human interleukin 13 receptor alpha 1 (IL-13Rα1), biotinylated ectodomain (human) (UniProt P78552). In words: SPR (Biacore T100), biotinylated receptor on SA chip, 1:1 kinetic fit.
The target is the same in test [4]. In words: SPR, kinetic fit.
Test [5] concerns the target T1, human interleukin 13 receptor alpha 2 (IL-13Rα2), biotinylated (human, UniProt Q14627 27-343, limits assumed, biotinylated (site not stated)).
T1 construct: The methods give construct limits only for IL-13Rα1 and IL-4Rα1; For IL-13Rα2 they say only that the biotinylated receptor was captured on the SA chip; also called IL13RA2; CD213a2
T1 sequence (looked up): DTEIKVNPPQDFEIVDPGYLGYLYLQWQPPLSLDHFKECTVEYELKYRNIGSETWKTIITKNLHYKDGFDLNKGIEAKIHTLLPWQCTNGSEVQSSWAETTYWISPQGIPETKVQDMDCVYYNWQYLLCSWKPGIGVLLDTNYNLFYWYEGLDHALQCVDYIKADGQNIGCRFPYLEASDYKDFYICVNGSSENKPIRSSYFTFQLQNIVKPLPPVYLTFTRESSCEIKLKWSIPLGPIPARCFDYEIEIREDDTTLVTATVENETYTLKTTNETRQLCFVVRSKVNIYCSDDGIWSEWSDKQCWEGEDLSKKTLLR
In words: SPR (Biacore T100), biotinylated receptor on SA chip, 1:1 kinetic fit. The procedure: (§1) Surface Plasmon Resonance. SPR experiments were conducted on a Biacore T100 instrument. Experiments used a Biacore SA sensor chip (GE Healthcare). Biotinylated IL-13Rα1 and IL-13Rα2 receptors were captured at a low density (100-200 RU) and kinetic runs were conducted at 40 μL/min. An unrelated biotinylated protein was immobilized as a reference surface for the SA sensor chip with matching RU to the experimental surface. All data was analyzed using the Biacore T100 evaluation software version 2.0 with a 1:1 Langmuir binding model. Serial dilutions of unbiotinylated IL-13 variants in the running buffer [1×HBS-P (GE Healthcare)+0.5% BSA] were flowed over the chip and IL-13Rα1/IL-13Rα2 were regenerated by using one 60 second injections of 7 mM glycine (pH 3.0).
(In general: Surface plasmon resonance follows binding to a sensor surface in real time, without labels.)

In test [6] the target is human interleukin 13 receptor alpha 1 (IL-13Rα1), biotinylated ectodomain (human) (UniProt P78552). Description: SPR (Biacore T100), biotinylated receptor on SA chip, equilibrium KD.
In test [7] the target is T1, human interleukin 13 receptor alpha 2 …. The test is described as above. As to the method: as §1
For test [8] the target is unchanged. In words: SPR, kinetic fit. As to the method:
as §1

Changes are numbered by the printed parent chain. Names and notes keep the numbering of the source.

In the case of Isotype Control (antibody), the % of cells in the PE gate in test [1] is 0.035%; in test [2], 0.042%.
In general, Kd refers to the constant that tells how readily two partners part at equilibrium. Read a low Kd as a tighter complex. The term koff denotes the first-order rate constant of dissociation. Read a low koff as a long-lived complex. In general, kon refers to the rate constant with which the complex forms. Lower therefore signals slow association. In test [3], “wild-type human IL-13 (from UniProt P35225 34-146) (ligand)” gave a Kd of 4.38 nM, a koff of 0.022 s⁻¹ and a kon of 5.21e+06 M⁻¹ s⁻¹. In test [4], this molecule came in with a Kd of 4.38 nM, a koff of 0.022 s⁻¹ and a kon of 5.21e+06 M⁻¹ s⁻¹.

B1: A7 (ligand)
cytokine: PGPVPPSTAIRELIEELINITQNQKAPLCNGSMVWSINLTAGMYCAALESLINVSGCSAIEKTQRMLSGFCPHKVSAGQFSSLHVRGSKIEVAQFVKDLLHHLRALFREGQFN
notes: also called IL-13 variant A7 (L10I, V18I, D87G, T88S, L101H, K104R, K105A)
Consider B1, for which, in test [5], the Kd is 0.218 nM, the koff stood at 0.0041 s⁻¹ and the kon amounted to 1.8e+07 M⁻¹ s⁻¹. In test [3], this molecule registered a Kd of 1.18 nM, a koff of 0.0034 s⁻¹ and a kon of 2.9e+06 M⁻¹ s⁻¹.

B2: C10 (ligand)
cytokine: B1 cytokine with I10H, R11L, R86M, G87D, S88T, K89R, H101L, R104K, A105K, R108K
notes: also called IL-13 variant C10 (L10H, R11L, V18I, R86M, K89R, R108K)
In test [5], B2 registered a Kd of 5 nM, a koff of 0.0061 s⁻¹ and an on-rate constant (kon) of 1.19e+06 M⁻¹ s⁻¹. In test [6], this molecule had a Kd of 264 nM.

B3: C7 (ligand)
cytokine: B1 cytokine with I10L, R11S, I14M, I18V, G87D, H101N, R104K, R108K
notes: also called IL-13 variant C7 (R11S, I14M, T88S, L101N, K105A, R108K)
Take B3: in test [5], the Kd stood at 0.272 nM, the koff came to 0.00057 s⁻¹ and the kon was 2.1e+06 M⁻¹ s⁻¹. Also, the Kd in test [6] stood at 35000 nM.

B4: A11 (ligand)
cytokine: B1 cytokine with I10V, G87S, H101F, A105T
notes: also called IL-13 variant A11 (L10V, V18I, D87S, T88S, L101F, K104R, K105T)
With B4, in test [5], binding was put at a Kd of 0.391 nM, the koff came to 0.006 s⁻¹ and the kon amounted to 1.62e+07 M⁻¹ s⁻¹. In test [3], the Kd was 0.084 nM, the koff turned out to be 0.0013 s⁻¹ and the kon is 1.64e+07 M⁻¹ s⁻¹.

B5: A5 (ligand)
cytokine: B1 cytokine with I10L, R11I, R86K, F107M
notes: also called IL-13 variant A5 (R11I, V18I, R86K, D87G, T88S, L101H, K104R, K105A, F107M)
In test [3], B5 showed a Kd of 2.94 nM, a koff of 0.0082 s⁻¹ and a kon of 2.8e+06 M⁻¹ s⁻¹. Besides, in test [7], binding was characterised by a dissociation constant (Kd) of 50 nM.

B6: A8 (ligand)
cytokine: B1 cytokine with G87S, K89R, A105T
notes: also called IL-13 variant A8 (L10I, V18I, D87S, T88S, K89R, L101H, K104R, K105T)
For the molecule B6, in test [5], the Kd was 0.263 nM, the koff was 0.0026 s⁻¹ and the kon is 1.01e+07 M⁻¹ s⁻¹. For the same molecule, in test [3], the Kd came to 2.06 nM, the koff was determined as 0.0033 s⁻¹ and the kon was found to be 1.64e+06 M⁻¹ s⁻¹.

B7: C2 (ligand)
cytokine: B1 cytokine with I10D, R11I, R86K, G87K, S88T, K89R, H101L, R104K, A105K, R108K
notes: also called IL-13 variant C2 (L10D, R11I, V18I, R86K, D87K, K89R, R108K)
For B7, in test [5], the Kd is 0.025 nM, the koff was 0.00015 s⁻¹ and the kon turned out to be 6.6e+06 M⁻¹ s⁻¹. For the same molecule, the Kd in test [6] turned out to be 4000 nM.

B8: C3 (ligand)
cytokine: B1 cytokine with I10A, I18V, R86T, S88K, K89R, H101N, R108K
notes: also called IL-13 variant C3 (L10A, R86T, D87G, T88K, K89R, L101N, K104R, K105A, R108K)
Turning to B8, in test [5], the Kd was determined as 0.379 nM, the koff stood at 0.002 s⁻¹ and the kon stood at 6e+06 M⁻¹ s⁻¹. Also, the Kd in test [6] was found to be 16000 nM.

B9: B2 (ligand)
cytokine: B1 cytokine with I10L, R86T, H101Y
notes: also called IL-13 variant B2 (V18I, R86T, D87G, T88S, L101Y, K104R, K105A)
B9: in test [5], binding was characterised by a dissociation constant (Kd) of 1.5 nM, the koff was 0.01 s⁻¹ and the kon was found to be 7.8e+06 M⁻¹ s⁻¹. Further, in test [3], the Kd was found to be 0.275 nM, the koff worked out at 0.0017 s⁻¹ and the kon was determined as 6.3e+06 M⁻¹ s⁻¹.

B10: C9 (ligand)
cytokine: B1 cytokine with I10H, R11L, R86K, G87E, S88T, K89R, H101N, R104K, A105T, R108K
notes: also called IL-13 variant C9 (L10H, R11L, V18I, R86K, D87E, K89R, L101N, K105T, R108K)
In test [5], B10 displayed a Kd of 0.259 nM, a koff of 0.000529 s⁻¹ and a kon of 2.03e+06 M⁻¹ s⁻¹. Besides, the Kd in test [6] was 31000 nM.

B11: A6 (ligand)
cytokine: B1 cytokine with I18L, R86M, G87K
notes: also called IL-13 variant A6 (L10I, V18L, R86M, D87K, T88S, L101H, K104R, K105A)
In test [5], B11 yielded a Kd of 0.267 nM, a koff of 0.0028 s⁻¹ and a kon of 1.07e+07 M⁻¹ s⁻¹. In test [3], this molecule registered a Kd of 1.9 nM, a koff of 0.0033 s⁻¹ and a kon of 1.77e+06 M⁻¹ s⁻¹.

B12: B6 (ligand)
cytokine: B1 cytokine with I10T, H101Y, A105T
notes: the sheet prints K at position 89 (same as wild type); also called IL-13 variant B6 (L10T, V18I, D87G, T88S, L101Y, K104R, K105T)
With B12, in test [3], the Kd was 5.9 nM, the koff is 0.0082 s⁻¹ and the kon was determined as 1.4e+06 M⁻¹ s⁻¹. In test [7], this molecule displayed a Kd of 53 nM.

B13: IL-13dn (ligand)
cytokine: B1 cytokine with I10V, E12A, R65D, G87S, H101F, A105T
notes: also called IL13dn (L10V, E12A, V18I, R65D, D87S, T88S, L101F, K104R, K105T)
As for B13, in test [8], binding was put at a Kd of 0.391 nM, the koff turned out to be 0.006 s⁻¹ and the kon was determined as 1.62e+07 M⁻¹ s⁻¹. In test [4], this molecule displayed a Kd of 0.084 nM, a koff of 0.0013 s⁻¹ and a kon of 1.64e+07 M⁻¹ s⁻¹.

B14: C12 (ligand)
cytokine: B1 cytokine with I10H, I18V, R86M, G87D, K89R, H101N, R108K
notes: also called IL-13 variant C12 (L10H, R86M, T88S, K89R, L101N, K104R, K105A, R108K)
In test [5], B14 showed a Kd of 0.053 nM, a koff of 0.000404 s⁻¹ and a kon of 7.61e+06 M⁻¹ s⁻¹. In test [6], this molecule displayed a Kd of 15000 nM.

B15: IL-13 variant B4 (R11S, V18I, R86K, D87G, T88S, K89M, L101Y, K104R, K105T) (ligand)
chain: PGPVPPSTALSELIEELINITQNQKAPLCNGSMVWSINPTAGMYCAALESLINVSGCSAIEKTQRMLSGFCPHKVAAGQFSSLHDKGSMIEVAQFVKDLLYHLRTLFREGQFNHHHHHH
notes: also called polypeptide B4
In test [3], B15 returned a Kd of 18 nM, a koff of 0.024 s⁻¹ and a kon of 1.36e+06 M⁻¹ s⁻¹. For the same molecule, the affinity in test [7], expressed as Kd, was 108 nM.

B16: IL-13 variant C4 (L10V, K89R, L101N, K105E, R108T) (ligand)
chain: PGPVPPSTAVRELIEELVNITQNQKAPLCNGSMVWSINLTAGMYCAALESLINVSGCSAIEKTQRMLSGFCPHKVSAGQFSSLHVRDTRIEVAQFVKDLLNHLKELFTEGQFNHHHHHH
notes: the first is used here; also called polypeptide C4
In test [5], B16 came in with a Kd of 0.393 nM, a koff of 0.000764 s⁻¹ and a kon of 1.94e+06 M⁻¹ s⁻¹. The Kd in test [6] turned out to be 36000 nM.

B17: IL-13 variant D7 (IL-13Rα2-selective IL-13 superkine; L10A, V18F, R86K, D87K, K89R, L101I, K104R, R108K) (ligand)
chain: B16 chain with V10A, V18F, Q64K, S81P, R86K, D87K, N101I, K104R, E105K, T108K
notes: the first is used here; also called polypeptide D7
In test [5], B17 returned a Kd of 0.003 nM, a koff of 5.37e-05 s⁻¹ and a kon of 1.77e+07 M⁻¹ s⁻¹. In test [6], this molecule returned a Kd of 4100 nM.

B18: IL-13 variant C11 (IL-13Rα2-selective IL-13 superkine; L10H, R86T, D87G, T88R, R108K) (ligand)
chain: B16 chain with V10H, R86T, D87G, T88R, R89K, N101L, E105K, T108K
notes: the first is used here; Made in insect Hi5 cells; also called polypeptide C11
Take B18: in test [5], the Kd worked out at 0.0001 nM, the koff was 9.18e-07 s⁻¹ and the kon worked out at 6.41e+06 M⁻¹ s⁻¹. The Kd in test [6] was found to be 1600 nM.

These data come from patent US20210214410A1 (Stanford University, published 2021).
